Measurements reported in the supplement of paper PMC11865577.

Tested on: TO-N3 (biotin conjugate)
Test: pull-down binding Z-score (relative to library population); higher = stronger binding
Details: RNA library: Library-2
Procedure, shortened: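 A heat-folded, dye-end-labelled (Cy5 or Cy3) RNA library (1 μg, phosphate/NaCl/KCl buffer) was exposed for 60 min at 25 °C to streptavidin beads holding 100 pmol of biotin-conjugated small molecule. RNA retained on the beads was eluted in hot SDS and hybridised to a DNA barcode microarray for 20 h at 55.5 °C. Binding scores were Z-scores against the library mean and standard deviation, calculated after subtracting beads alone and taking trimmed means of replicate probes.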

In order of rising “pull-down binding Z-score” value:
1. GAAAUACUUGUCACAUACAAUUGUUGUGAUGAUGAUUAUUUC  -1.39
2. GACAUGUUCCUCGGAACUUGUC  -1.35
3. CUUUGUAUUGCAUAGACGGUGCUUUACUUACAAAGUCCUCAGAAUACAAAG  -1.28
4. GAAGGUCUUAAUGACAACCUUC [SHAPE_invitro_SARS-CoV-2_Motif_33]  -1.28
5. GAGGUAAGUACGAUACUUACCUG [U1snRNP5ss-7]  -1.17
6. CUUUUGAAGAAG [SHAPE_invivo_SARS-CoV-2_Motif_195]  -1.16
7. GAAUGCGUCAUCAUCUGAAGCAUUU  -1.1
8. CUUUAGUAAUUACCUAAAGAGACGUGUAGUCUUUAAUGGUGUUUCCUUUAG  -1.09
9. GAGUAUUAGGUUUGAAAACCCUUGCUACUC [SHAPE_invivo_SARS-CoV-2_Motif_136]  -0.966
10. GAGGUAAGUAUGAUACUUACCUG [U1snRNP5ss-8]  -0.957
11. CUUUGAUAAAGCUGGUCAAAAGACUUAUGAAAG  -0.947
12. GAAAUUUGACACCUUCAAUGGGGAAUGUCCAAAUUUU [SHAPE_invitro_SARS-CoV-2_Motif_22]  -0.92
13. GAGACAUUUAAACUGUCUU  -0.91
14. GACUUCAGUAACUCAGGUUCUGAUGUU  -0.829
15. GAGUCCUCAUCGGAGGACUU [IAV_invivo_NS1_NEP_8_Motif_11+IAV_invivo_NS1_NEP_8_Motif_11]  -0.729
16. CUUUUAUGUCUAUGCUAAUGGAGGUAAAGG [SHAPE_invivo_SARS-CoV-2_Motif_154]  -0.68
17. GACUCUGAGCCAGUGCUCAAAGGAGUC  -0.677
18. GACAAUGUCUUAUCUACUUUUAUUUCAGCAGCUCGGCAAGGGUUUGUUGAUUCAGAUGUAGAAACUAAAGAUGUUGUU  -0.599
19. GAAGGCUAUUUGAACUCUACUAAUGUCACUAUUGCAACCUACUGUACUGGUUCUAUACCUUGUAGUGUUUGUCUUAGUGGUUUAGAUUCUUU  -0.505
20. CUUGGAAAACUUCAAG  -0.471
21. GACCAGAAAUCAGCCCGAAUGGUU [IAV_invivo_PB1_2_Motif_17+IAV_invivo_PB1_2_Motif_17]  -0.464
22. CUUUAUUAGAAG [DMSMaPseq_invitro_SARS-CoV-2_Motif_195]  -0.39
23. GAAGUUACAACAACUCUGGAAGAAACUAAGUUCCUCACAGAAAACUUGUUACUUU [DMSMaPseq_invitro_SARS-CoV-2_Motif_72]  -0.304
24. GACUUAUGAAAACUAUAGGUC  -0.299
25. GACCCUAAGACUAAAAAUGUUACAAAAGAAAAUGACUCUAAAGAGGGUUUUUUCACUUACAUUUGUGGGUU  -0.227
26. GAAAAUGACUCUAAAGAGGGUUUUUUC [SHAPE_invitro_SARS-CoV-2_Motif_382]  -0.18
27. GACAUCACUUUCUUAAAGAAAGAUGCUCCAUAUAUAGUGGGUGAUGUU [DMSMaPseq_invitro_SARS-CoV-2_Multi_15_ComplexLevel_1]  -0.173
28. GAAGUCACACCUUC [SHAPE_invitro_SARS-CoV-2_Motif_534]  -0.137
29. GAAAAGAACAAUCAAGGGUACACACCACUGGUUGUUACUCACAAUUUUGACUUCACUUUUAGUUUUAGUCCAGAGUACUCAAUGGUCUUUGUUCUUUUU  -0.121
30. GAACUCUACUAAUGUCACUAUUGCAACCUACUGUACUGGUUCUAUACCUUGUAGUGUUUGUCUUAGUGGUUUAGAUUC [DMSMaPseq_invitro_SARS-CoV-2_Motif_135]  -0.105
31. CUUUACCAACCACCACAAACCUCUAUCACCUCAGCUGUUUUGCAGAGUGGUUUUAGAAAAAUGGCAUUCCCAUCUGGUAAAG  -0.0807
32. GAGGGGUGUAUACUGCUGCCGUGAACAUGAGCAUGAAAUUGCUUGGUACACGGAACGUUCUGAAAAGAGCUAUGAAUUGCAGACACCUUUU  -0.034
33. GACUUGCUUUAGCACUCAAUUUGCUUUUGCUUGUC  -0.0156
34. GAAUUUACACCUUUUGAUGUUGUUAGACAAUGCUCAGGUGUUACUUUC  0.0292
35. GAGGUGAGCAGGAUACUUACCUG [U1snRNP5ss-16]  0.0508
36. GAAGAGGGAGCAAUUGUUGGCGAAAUUUCACCAUUGCCUUCUCUUC [IAV_invivo_NS1_NEP_8_Motif_10+IAV_invivo_NS1_NEP_8_Motif_10]  0.0993
37. GACUCAUUCAAGGAGGAGUU [SHAPE_invivo_SARS-CoV-2_Motif_469]  0.111
38. GAGGCUAUGUACACACCGCAUACAGUCUUACAGGCUGUUGGGGCUUGUGUUCUUUGCAAUUC [SHAPE_invitro_SARS-CoV-2_Motif_296]  0.112
39. GAGCUGCCCUGUCGGUGAAGCUC [IAV_invivo_NA_6_Motif_6+IAV_invivo_NA_6_Motif_6]  0.217
40. GAGGCACUUAAAAUGACCAUGGCCUC [IAV_invivo_NS1_NEP_8_Motif_6+IAV_invivo_NS1_NEP_8_Motif_6]  0.233
41. GAACCUUGCUCUUCUGGAACAUACGAGGGCAAUUC  0.239
42. GACAGCAGAUAUAGUUGUC  0.331
43. GACGACUACUAGCGUGCCUUUGUAAGCACAAGCUGAUGAGUACGAACUUAUGUACUCAUUCGUU [SHAPE_invivo_SARS-CoV-2_Multi_65_ComplexLevel_1]  0.417
44. GAAUGGAGAACGCAGUGGGGCGCGAUCAAAACAACGUCGGCCCCAAGGUUUACCCAAUAAUACUGCGUCUUGGUUC  0.452
45. GACAUUUUAUCUUACUAAUGAUGUUUCUUUUUUAGCACAUAUUCAGUGGAUGGUUAUGUU [DMSMaPseq_invitro_SARS-CoV-2_Motif_175]  0.455
46. GACCCUGUGGGUU [SHAPE_invitro_SARS-CoV-2_Motif_242]  0.574
47. GACUACUAGCGUGCCUUUGUAAGCACAAGCUGAUGAGUACGAACUUAUGUACUCAUUCGUUUCGGAAGAGACAGGUACGUUAAUAGUU [SHAPE_invitro_SARS-CoV-2_Multi_71_ComplexLevel_1]  0.649
48. GACAGUGGUUGCCUACGGGUACGCUGCUUGUC  0.666
49. GAGGUGAUGCAGAUACUUACCUG [U1snRNP5ss-20]  0.68
50. GAGAGUGUUCAGACAUUCUU [SHAPE_invivo_SARS-CoV-2_Motif_44]  0.718
51. GAGACGGUCGGGUCCAGAUAUUCGUAUCUGUCGAGUAGAGUGUGGGCUCC [Broccoli]  1.12
